Test results: PMC7580981

Molecular target: IBV polymerase trimeric complex (Pol3): PA-His, PB1, PB2 (influenza B virus)
Assay: SPR
Conditions: natural protein

chicken ANP32A, purified (GST cleaved)
Kd: 0.133 µM
